Where no end group is shown, it is not given here.
Target: AM/fH complex (Homo sapiens, UniProt P08603)
Assay: not given
Details: 3M NaSCN
Procedure: (§1) Alternatively, the AM/fH interaction was analyzed using a multi-well assay. In accordance with this assay, a 96-well polyvinylchloride (PVC) plate was coated with factor H (5 ng/well, Sigma, St. Louis, Mo.). The plate was blocked with a solution containing TBS, 0.1% ATC, and 0.1% TWEEN® 20 nonionic detergent, and then incubated with fluorescein-labeled AM (50 nM) for 2 hr. Prior to the development of the assay, the wells were incubated for various time periods with PBS or 3M NaSCN pH 7.4. Following this, the plate was washed and incubated with anti-fluorescein polyclonal antibody (1:1000, Molecular Probes) and ^125I-Protein A (Amersham Pharmacia Biotech). Radioactivity was determined using a gamma counter. FIG. 6B.

Sequence of AM/fH complex (P08603 19-1231, one chain of several): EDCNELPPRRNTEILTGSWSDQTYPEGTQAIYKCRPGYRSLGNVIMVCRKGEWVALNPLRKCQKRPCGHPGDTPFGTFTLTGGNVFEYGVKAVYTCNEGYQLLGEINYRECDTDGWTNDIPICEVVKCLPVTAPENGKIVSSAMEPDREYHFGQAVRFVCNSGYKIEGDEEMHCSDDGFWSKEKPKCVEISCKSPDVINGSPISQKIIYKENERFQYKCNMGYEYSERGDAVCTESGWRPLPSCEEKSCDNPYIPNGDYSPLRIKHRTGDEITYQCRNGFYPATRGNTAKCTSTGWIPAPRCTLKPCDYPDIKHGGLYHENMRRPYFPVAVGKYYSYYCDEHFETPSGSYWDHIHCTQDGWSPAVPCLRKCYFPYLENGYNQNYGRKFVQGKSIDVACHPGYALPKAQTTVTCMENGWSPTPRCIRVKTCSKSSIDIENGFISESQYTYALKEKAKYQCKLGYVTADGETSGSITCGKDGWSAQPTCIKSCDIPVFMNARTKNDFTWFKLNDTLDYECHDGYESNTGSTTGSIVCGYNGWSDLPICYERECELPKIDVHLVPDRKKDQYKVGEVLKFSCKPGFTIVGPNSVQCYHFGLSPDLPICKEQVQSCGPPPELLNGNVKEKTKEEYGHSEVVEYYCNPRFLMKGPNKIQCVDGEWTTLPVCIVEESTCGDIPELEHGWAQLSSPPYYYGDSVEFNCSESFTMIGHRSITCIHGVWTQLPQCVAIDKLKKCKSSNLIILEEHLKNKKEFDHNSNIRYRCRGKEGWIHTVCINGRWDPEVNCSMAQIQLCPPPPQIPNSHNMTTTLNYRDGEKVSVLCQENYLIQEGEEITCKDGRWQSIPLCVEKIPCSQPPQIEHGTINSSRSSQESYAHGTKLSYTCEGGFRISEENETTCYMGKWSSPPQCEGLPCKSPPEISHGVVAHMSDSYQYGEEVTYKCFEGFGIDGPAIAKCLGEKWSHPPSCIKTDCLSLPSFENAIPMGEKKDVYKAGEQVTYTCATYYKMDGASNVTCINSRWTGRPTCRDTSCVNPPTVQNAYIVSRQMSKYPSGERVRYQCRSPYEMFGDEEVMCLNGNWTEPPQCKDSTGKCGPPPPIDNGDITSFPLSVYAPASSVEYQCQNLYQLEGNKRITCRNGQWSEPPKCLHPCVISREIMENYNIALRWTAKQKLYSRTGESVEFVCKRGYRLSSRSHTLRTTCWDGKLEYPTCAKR

Compound | Dissociation of AM/fH complex
N#C[S-].[Na+] [NaSCN, sodium thiocyanate] | dissociated

Target: factor H (Homo sapiens, UniProt P08603)
Sequence (P08603 19-1231): as the sequence (P08603 19-1231, one chain of several) above
Assay: Multi-well plate competition of fluorescein-labeled AM binding to factor H
Set-up: purchased Sigma
Details: 50 nM fluorescein-labeled AM; factor H 5 ng/well; increasing concentrations of unlabeled competitor
Procedure: Lane 1: horseradish peroxidase (5 μg), a glycosylated protein used as positive control; Lane 2: soybean trypsin inhibitor (5 μg), a non-glycosylated protein used as negative control; Lane 3: AMBP-1 (2 μg). […] Lane 1: isoelectric focusing markers; Lane 2: AMBP-1 (4 μg). […] Lane 1: AMBP-1 (100 ng); Lane 2: AMBP-1 (200 ng); Lane 3: commercially available human factor H (50 ng); Lane 4: human plasma (0.2 μl). […] Results represent one of two independent experiments. Values represent mean and standard deviation of three determinations. “B/B0” indicates the ratio of signals generated in the presence/absence of unlabeled competitor.
as §1

Compound | Effect on binding of fluorescein-labeled AM to factor H-coated plate
calcitonin gene-related peptides [CGRP] | not affected
proadrenomedullin N-terminal 20 peptide (ARLDVASEFRKKWNKWALSR) [PAMP] | not affected

Target: T1, AMBP-1 (factor H) (Homo sapiens, UniProt P08603)
T1 construct: Total proteins derived from human plasma (2 μl) were electrophoretically fractionated; from tissue; host or cells: human plasma
T1 sequence (P08603 19-1231): as the sequence (P08603 19-1231, one chain of several) above
Assay: Ligand blot competition of labeled AM binding to plasma AMBP-1
Details: 7 μM unlabeled peptide, preincubation 6 hr at 4° C.
Procedure: Total proteins derived from human plasma (2 μl) were electrophoretically fractionated on 3-8% Tris-acetate gel (Novex, San Diego, Calif.) under non-reducing conditions. For the ligand blotting experiment, the proteins were transferred to a […] nitrocellulose membrane that was incubated for […] with 1% Nonidet P-40 (NP-40). Non-specific binding was further blocked with a 2 hr incubation in TBS containing 0.1% ATC. Incubations with 70 nM AM labeled with biotin, fluorescein, or DNP were carried out overnight at 4° C. in blocking buffer containing 0.1% TWEEN® 20 nonionic detergent. For biotin detection, the ligand blot was incubated with an avidin-biotin-peroxidase complex and the AEC reagent (Vector Laboratories, Inc., Burlingame, Calif.). For fluorescein and DNP, the ligand blots were incubated 1 hr at room temperature with rabbit anti-fluorescein or anti-DNP IgG, respectively, (1:1000 in incubation buffer; Molecular Probes, Inc.). Anti-rabbit antibody labeled with alkaline phosphatase (1:2000; Dako Corporation, Carpenteira, Calif.) was added for 0.5 hr, and the blot was developed using 4-nitro blue tetrazolium chloride/5-bromo-4-chloro-3-indolyl phosphate (NBT/BCIP) as the color-substrate solution (Roche Molecular Biochemicals, Indianapolis, Ind.).
Following this preincubation, labeled full-length AM was introduced and incubated overnight at 4° C.

Compound | Competition for labeled AM/AMBP-1 complex on ligand blot
amylin (KCNTATCATQRLANFLVHSSNNFGAILSSTNVGSNTY; not fully specified (C-terminus, bridges); cysteine pairing not given here; UniProt P10997 34-70, looked up) | only full-length AM was able to dissociate
AM16-21: AM truncated polypeptide (CRFGTC) | only full-length AM was able to dissociate
AM13-52: AM truncated polypeptide | only full-length AM was able to dissociate
calcitonin gene-related peptides [CGRP] | only full-length AM was able to dissociate
AM34-52: AM truncated polypeptide (TDKDKDNVAPRSKISPQGY) | only full-length AM was able to dissociate
AM22-52: AM truncated polypeptide | only full-length AM was able to dissociate
AM1-12: AM truncated polypeptide (YRQSMNNFQGLR) | only full-length AM was able to dissociate
proadrenomedullin N-terminal 20 peptide (ARLDVASEFRKKWNKWALSR) [PAMP] | only full-length AM was able to dissociate
insulin-like growth factor [IGF-1] | only full-length AM was able to dissociate

System: not listed separately
Assay: Storage of non-radioactively labeled AM
Assay type: physicochemical
Details: stored at 4° C. for as long as 3 months
Procedure: Non-radioactive labeling of AM was accomplished by conjugating synthetic AM comprising amino acids 1-52 (Phoenix Pharmaceuticals, Inc., Mountainview, Calif.) with succinimidyl esters linked to biotin (Pierce Chemical Co., Rockford, Ill.), fluorescein (Molecular Probes, Inc., Eugene, Oreg.), or dinitrophenol (DNP; Molecular Probes, Inc.). Briefly, 100 μg of AM (16 μM) was dissolved in 1 ml of 50 mM sodium bicarbonate, pH 8.5, and the succinimidyl ester was added to yield a final molar concentration of 10:1 (linker:AM). The mixture was incubated with slow agitation for 1 hr at room temperature and the reaction was terminated by the addition of 0.1 M ethanolamine followed by another incubation for 1 hr. Unincorporated ligand was removed by extracting the AM using reverse phase SEP-PAK® C-18 solid-phase extraction cartridges (Waters, Milford, Mass.) and eluting the sample with acidic-isopropanol. The extract was lyophilized and reconstituted in 1 ml of TBS (0.05 M Tris-HCl, 0.15 M NaCl), 0.1% alkali-treated casein (ATC), 0.1% TWEEN® 20 nonionic detergent, and 0.05% TRITON® X-100 nonionic detergent, pH 7.4.

Compound | Storage stability (activity)
Labeled AM: synthetic AM 1-52 conjugated via succinimidyl esters to biotin, fluorescein or dinitrophenol | without significant loss of activity

Source: patent publication US7659081B2, “Determination of AM-binding proteins and the association of adrenomedullin (AM) therewith” (The United States of America as represented by the …, priority 1999, dated 2010)
